For this assay, the target named is H-2Db class I MHC molecule on the surface of RMA-S cells (mouse (endogenous in RMA-S)).

With influenza NP (365-380) peptide, the fold increase in H-2Db reactivity (mAb 28.14.8) after peptide treatment is 2 fold.

(Values after article PMC2119460.)
